The target in assay [1] is T1, Human oxMIF (human recombinant MIF treated with 0.2% Proclin300, oxMIF surrogate) (human, UniProt P14174 2-115, treated with 0.2% Proclin300 (active component 5-chloro-2-methyl-4-isothiazolin-3-one) for 3 h to transform MIF into an oxMIF surrogate).
T1 construct: SPR analyte; also called Proclin300 treated MIF; soluble human oxMIF
Kind of assay: SPR (Biacore 3000), antibody amine-coupled to CM5 chip, Proclin300-treated MIF 50-150 nM as analyte, 1:1 Langmuir with mass transfer; mean of flow cells 2-4, SD +/-0.38 nM. The protocol: FC1 was used as reference cell and was only reacted with buffers. Mouse or human recombinant MIF were diluted in HBS-EP buffer (GE Healthcare) to concentrations of 50, 75, 100, or 150 nM in the presence of 0.2% Proclin300 (active component 5-chloro-2-methyl-4-isothiazolin-3-one; Sigma) to transform MIF into an oxMIF surrogate (Thiele M et al., 2015) for 3 h at room temperature. Proclin300 treated MIF was applied to immobilized anti-oxMIF antibodies at a flow rate of 30 μl/min for 3 min using a Biacore™ 3000 Instrument (GE Healthcare). Dissociation time was 300 seconds, and the chip was regenerated using 10 mM HCl for 3 minutes. The kinetics of the concentration series were analyzed by local simultaneous association/dissociation fitting of each binding curve after subtraction of background from the reference cell (FC1) using the iterative Langmuir 1:1 interaction model with mass transfer compensation provided by the BiaEvaluation 4.1 software (GE Healthcare). Data are represented as mean+/−SD (standard deviation) of the calculated KD values of Flow Cells 2-4.
On the technique in general: Surface plasmon resonance follows binding to a sensor surface in real time, without labels.

The target of assay [2] is T2, oxMIF: recombinant human MIF immobilized into ELISA plates (transforming MIF to oxMIF) (human, UniProt P14174 2-115).
T2 construct: Same polypeptide as redMIF; differs in conformation (oxMIF isoform); also called immobilized MIF; immobilized oxMIF
The assay can be described thus: ELISA, antibody titrated on plate-immobilized recombinant human MIF (oxMIF), goat anti-human IgG(Fc)-HRP; EC50 of 4-parameter fit given as KD, two experiments. How it is done:
Recombinant human MIF diluted in PBS at 1 μg/ml was immobilized into ELISA plates overnight at 4° C. (transforming MIF to oxMIF according to Thiele et al., 2015). After blocking, serial dilutions of anti-oxMIF antibodies were added to the plates. Finally, bound antibodies were detected with Goat anti-human IgG(Fc)-HRP conjugate and tetramethylbenzidine (TMB) as substrate. The chromogenic reaction was stopped with 3M H₂SO₄ and OD was measured at 450 nm.
(An ELISA detects its analyte on a solid surface through an enzyme-linked reagent.)

Assay [3] concerns the target T2, oxMIF: recombinant human MIF …. The assay can be described thus: ELISA, antibody titrated on plate-immobilized recombinant human MIF (oxMIF), protein L-HRP; EC50 of 4-parameter fit given as KD, mean of two experiments. The protocol:
(§1) Recombinant human MIF diluted in PBS at 1 μg/ml was immobilized into ELISA plates overnight at 4° C. (transforming MIF to oxMIF according to Thiele et al., 2015). After blocking, serial dilutions of anti-oxMIF antibodies were added to the plates. Finally, bound antibodies were detected using a protein L-HRP conjugate and tetramethylbenzidine (TMB) as substrate. The chromogenic reaction was stopped with 3M H₂SO₄ and OD was measured at 450 nm.

Assay [4] has the same target. The assay can be described thus: ELISA on plate-immobilized recombinant human MIF (oxMIF). The protocol:
as §1

T2 sequence (P14174 2-115 limits assumed): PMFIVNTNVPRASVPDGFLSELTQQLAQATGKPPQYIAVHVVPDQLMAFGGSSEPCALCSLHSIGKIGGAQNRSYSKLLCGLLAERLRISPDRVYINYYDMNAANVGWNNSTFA
T1 sequence (P14174 2-115 limits assumed): as above

B1: anti-oxMIF antibody C0008 (control antibody) (antibody, human IgG1, kappa, V domains shown)
VH: EVQLLESGGGLVQPGGSLRLSCAASGFTFSIYSMNWVRQAPGKGLEWVSSIGSSGGTTYYADSVKGRFTISRDNSKNTLYLQMNSLRAEDTAVYYCAGSQWLYGMDVWGQGTTVTVSS
VL: DIQMTQSPSSLSASVGDRVTITCRSSQRIMTYLNWYQQKPGKAPKLLIFVASHSQSGVPSRFRGSGSETDFTLTISGLQPEDSATYYCQQSFWTPLTFGGGTKVEIKR
notes: Human IgG with wt Fc
In general, Kd refers to the free concentration of one partner at which half of the binding sites on the other are occupied at equilibrium, for simple one-to-one binding. In the case of B1, the Kd in assay [1] is 3.49 nM; in assay [2], 0.2 nM; in assay [3], 0.7 nM.

B2: anti-oxMIF antibody C0099 (antibody, human IgG1, kappa)
heavy: EVQLLESGGGLVQPGGSLRLSCAASGFTFSIYSMNWVRQAPGKGLEWVSSIGSSGGTTYYADSVKGRFTISRDNSKNTLYLQMNSLRAEDTAVYYCAGSQWLYGMDVWGQGTTVTVSSASTKGPSVFPLAPSSKSTSGGTAALGCLVKDYFPEPVTVSWNSGALTSGVHTFPAVLQSSGLYSLSSVVTVPSSSLGTQTYICNVNHKPSNTKVDKKVEPKSCDKTHTCPPCPAPELLGGPDVFLFPPKPKDTLMISRTPEVTCVVVDVSHEDPEVQFNWYVDGVEVHNAKTKPREEQFNSTFRVVSVLTVVHQDWLNGKEYKCKVSNKALPAPEEKTISKTKGQPREPQVYTLPPSREEMTKNQVSLTCLVKGFYPSDIAVEWESNGQPENNYKTTPPMLDSDGSFFLYSKLTVDKSRWQQGNVFSCSVMHEALHNHYTQKSLSLSPG
light: DIQMTQSPSSLSASVGDRVTITCRSSQRIMTYLNWYQQKPGKAPKLLIYVGSHSQSGVPSRFRGSGSETDFTLTISGLQPEDSATYYCQQSFFTPLTFGGGTKVEIKRTVAAPSVFIFPPSDEQLKSGTASVVCLLNNFYPREAKVQWKVDNALQSGNSQESVTEQDSKDSTYSLSSTLTLSKADYEKHKVYACEVTHQGLSSPVTKSFNRGEC
notes: Fc mutated to increase effector functions
As for B2, the Kd in assay [3] turned out to be 0.4 nM.

B3: anti-oxMIF antibody C0083 (antibody, human IgG1, kappa)
heavy: not shown
light: DIQMTQSPSSLSASVGDRVTITCRSSQRIMTYLNWYQQKPGKAPKLLIYVGSHSQSGVPSRFRGSGSETDFTLTISGLQPEDSATYYCQQSFFTPLTFGGGTKVEIKRTVAAPSVFIFPPSDEQLKSGTASVVCLLNNFYPREAKVQWKVDNALQSGNSQESVTEQDSKDSTYSLSSTLTLSKADYEKHKVYACEVTHQGLSSPVTKSFNRGEC
Turning to B3, in assay [3], the Kd was found to be 0.5 nM.

B4: anti-oxMIF antibody C0098 (antibody, human IgG1, kappa)
heavy: EVQLLESGGGLVQPGGSLRLSCAASGFTFSIYSMNWVRQAPGKGLEWVSSIGSSGGTTYYADSVKGRFTISRDNSKNTLYLQMNSLRAEDTAVYYCAGSQWLYGMDVWGQGTTVTVSSASTKGPSVFPLAPSSKSTSGGTAALGCLVKDYFPEPVTVSWNSGALTSGVHTFPAVLQSSGLYSLSSVVTVPSSSLGTQTYICNVNHKPSNTKVDKRVEPKSCDKTHTCPPCPAPELLGGPDVFLFPPKPKDTLMISRTPEVTCVVVDVSFEDPEVKFNWYVDGVEVHNAKTKPREEQYNSTYRVVSVLTVLHQDWLNGKEYKCKVTNKALPAPEEKTISKAKGQPREPQVYTLPPSREEMTKNQVSLTCLVKGFYPSDIAVEWESNGQPENNYKTTPPVLDSDGSFFLYSKLTVDKSRWQQGNVFSCSVMHEALHNHYTQKSLSLSPG
light: DIQMTQSPSSLSASVGDRVTITCRSSQRIMTYLNWYQQKPGKAPKLLIYVGSHSQSGVPSRFRGSGSETDFTLTISGLQPEDSATYYCQQSFFTPLTFGGGTKVEIKRTVAAPSVFIFPPSDEQLKSGTASVVCLLNNFYPREAKVQWKVDNALQSGNSQESVTEQDSKDSTYSLSSTLTLSKADYEKHKVYACEVTHQGLSSPVTKSFNRGEC
notes: as for B2
Regarding B4, in assay [3], the Kd was 0.7 nM.

B5: anti-oxMIF antibody C0077 (antibody, human IgG1, kappa, V domains shown)
VH: EVQLQESGGGLVQPGGSLRLSCAASGFTFSIYSMNWVRQAPGKGLEWVSSIGSSGGTTYYADSVKGRFTISRDNSKNTLYLQMNSLRAEDTAVYYCAGSQWLYGMDVWGQGTTVTVSS
VL: DIQMTQSPSSLSASVGDRVTITCRSSQRIMTYLNWFQQKPGKAPKLLIYVGSHSQSGVPSRFRGSGSETDFTLTISGLQPEDSATYYCQQSFWTPLTFGGGTKVEIKR
notes: Differs from C0076 only by Y36F in VL
Turning to B5, the “fold reduction in affinity compared to C0076” value in assay [4] was 5 fold. Besides, in assay [3], the Kd was determined as 5.2 nM.

B6: anti-oxMIF antibody C0097 (antibody, human IgG1, kappa)
heavy: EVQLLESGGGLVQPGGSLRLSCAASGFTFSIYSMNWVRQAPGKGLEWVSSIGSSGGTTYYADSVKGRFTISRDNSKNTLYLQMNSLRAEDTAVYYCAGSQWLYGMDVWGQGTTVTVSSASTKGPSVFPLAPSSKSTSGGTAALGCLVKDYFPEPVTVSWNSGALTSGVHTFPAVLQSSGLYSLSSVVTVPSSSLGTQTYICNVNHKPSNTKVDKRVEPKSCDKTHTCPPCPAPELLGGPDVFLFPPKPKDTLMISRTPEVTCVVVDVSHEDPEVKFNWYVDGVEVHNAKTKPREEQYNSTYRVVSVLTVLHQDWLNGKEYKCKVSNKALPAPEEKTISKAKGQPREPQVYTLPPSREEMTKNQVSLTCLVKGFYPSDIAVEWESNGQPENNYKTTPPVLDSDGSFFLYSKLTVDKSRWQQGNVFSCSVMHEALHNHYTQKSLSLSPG
light: DIQMTQSPSSLSASVGDRVTITCRSSQRIMTYLNWYQQKPGKAPKLLIYVGSHSQSGVPSRFRGSGSETDFTLTISGLQPEDSATYYCQQSFFTPLTFGGGTKVEIKRTVAAPSVFIFPPSDEQLKSGTASVVCLLNNFYPREAKVQWKVDNALQSGNSQESVTEQDSKDSTYSLSSTLTLSKADYEKHKVYACEVTHQGLSSPVTKSFNRGEC
notes: as for B2
Consider B6, for which the Kd in assay [3] stood at 0.8 nM.

B7: anti-oxMIF antibody C0100 (antibody, human IgG1, kappa)
heavy: EVQLLESGGGLVQPGGSLRLSCAASGFTFSIYSMNWVRQAPGKGLEWVSSIGSSGGTTYYADSVKGRFTISRDNSKNTLYLQMNSLRAEDTAVYYCAGSQWLYGMDVWGQGTTVTVSSASTKGPSVFPLAPSSKSTSGGTAALGCLVKDYFPEPVTVSWNSGALTSGVHTFPAVLQSSGLYSLSSVVTVPSSSLGTQTYICNVNHKPSNTKVDKRVEPKSCDKTHTCPPCPAPELVGGPSVFLLPPKPKDTLMISRTPEVTCVVVDVSHEDPEVKFNWYVDGVEVHNAKTKPPEEQYNSTLRVVSVLTVLHQDWLNGKEYKCKVSNKALPAPIEKTISKAKGQPREPQVYTLPPSRDELTKNQVSLTCLVKGFYPSDIAVEWESNGQPENNYKTTPLVLDSDGSFFLYSKLTVDKSRWQQGNVFSCSVMHEALHNHYTQKSLSLSPG
light: DIQMTQSPSSLSASVGDRVTITCRSSQRIMTYLNWYQQKPGKAPKLLIYVGSHSQSGVPSRFRGSGSETDFTLTISGLQPEDSATYYCQQSFFTPLTFGGGTKVEIKRTVAAPSVFIFPPSDEQLKSGTASVVCLLNNFYPREAKVQWKVDNALQSGNSQESVTEQDSKDSTYSLSSTLTLSKADYEKHKVYACEVTHQGLSSPVTKSFNRGEC
notes: as for B2
For B7, the Kd in assay [3] was found to be 0.5 nM.

B8: anti-oxMIF antibody C0073 (antibody, human IgG1, kappa)
heavy: not shown
light: DIQMTQSPSSLSASVGDRVTITCRSSQRIMTYLNWYQQKPGKAPKLLIYVGSHSQSGVPSRFRGSGSETDFTLTISGLQPEDSATYYCQQSFFTPLTFGGGTKVEIKRTVAAPSVFIFPPSDEQLKSGTASVVCLLNNFYPREAKVQWKVDNALQSGNSQESVTEQDSKDSTYSLSSTLTLSKADYEKHKVYACEVTHQGLSSPVTKSFNRGEC
As to B8, in assay [3], the Kd came out at 1 nM.

B9: anti-oxMIF antibody C0078 (antibody, human IgG1, kappa)
heavy: not shown
light: DIQMTQSPSSLSASVGDRVTITCRSSQRIMTYLNWYQQKPGKAPKLLIYVGSHSQSGVPSRFRGSGSETDFTLTISGLQPEDSATYYCQQSFFTPLTFGGGTKVEIKRTVAAPSVFIFPPSDEQLKSGTASVVCLLNNFYPREAKVQWKVDNALQSGNSQESVTEQDSKDSTYSLSSTLTLSKADYEKHKVYACEVTHQGLSSPVTKSFNRGEC
With B9, the Kd in assay [3] was determined as 1.6 nM.

B10: anti-oxMIF antibody C0090 (antibody, human IgG1, kappa)
heavy: not shown
light: DIQMTQSPSSLSASVGDRVTITCRSSQRILTYLNWYQQKPGKAPKLLIYVGSHSQSGVPSRFRGSGSETDFTLTISGLQSEDSATYYCQQSFFTPLTFGGGTKVEIKRTVAAPSVFIFPPSDEQLKSGTASVVCLLNNFYPREAKVQWKVDNALQSGNSQESVTEQDSKDSTYSLSSTLTLSKADYEKHKVYACEVTHQGLSSPVTKSFNRGEC
Take B10: the Kd in assay [3] turned out to be 0.5 nM.

B11: anti-oxMIF antibody C0076 (antibody, human IgG1, kappa, V domains shown)
VH: EVQLQESGGGLVQPGGSLRLSCAASGFTFSIYSMNWVRQAPGKGLEWVSSIGSSGGTTYYADSVKGRFTISRDNSKNTLYLQMNSLRAEDTAVYYCAGSQWLYGMDVWGQGTTVTVSS
VL: DIQMTQSPSSLSASVGDRVTITCRSSQRIMTYLNWYQQKPGKAPKLLIYVGSHSQSGVPSRFRGSGSETDFTLTISGLQPEDSATYYCQQSFWTPLTFGGGTKVEIKR
As for B11, the equilibrium dissociation constant (Kd) in assay [3] was 1.1 nM.

These data come from patent publication US20230365671A1 (ONCOONE RESEARCH AND DEVELOPMENT, published 2023).
